# Assay results published in publication doi:10.1101/2020.08.21.260323.
# Legend:
# [1] = biological target: SpaKC, class III lanthipeptide synthetase (LanKC) homolog from S. sparsogenes ATCC 25498 (S. sparsogenes ATCC 25498); experiment: MST
# [2] = biological target: SpaKC-SpaF complex (S. sparsogenes ATCC 25498); experiment: MST
# [3] = biological target: SpaF, FMN-dependent cysteine decarboxylase of the spa gene cluster (S. sparsogenes ATCC 25498); experiment: crystal structure
Kd [1] [µM],Kd [2] [µM],stoichiometry N [3],Substance
0.275,–,–,SpaA leader peptide
0.217,0.094,–,SpaA precursor peptide
0.182,–,12,"SpaF, FMN-dependent cysteine decarboxylase of the spa gene cluster (enzyme)"
2.27,–,–,"TvaF, cysteine decarboxylase from thioviridamide biosynthesis (enzyme)"
